The values below come from PMC6210734, “Unliganded Progesterone Receptor Governs Estrogen Receptor Gene Expression by Regulating DNA Methylation in Breast Cancer Cells”.

Data set [1] addresses T1, Progesterone receptor isoform B (PR-B) (Homo sapiens, UniProt P06401 1-933). Briefly: EMSA; EMSA: 20 min at room temperature, 5% acrylamide-bisacrylamide gel; buffer, salt and pH not stated. Particulars: protein: recombinant; chain copies: 2; (radioactive); blunt. For orientation: Mobility shift assays separate free from complexed probe on a gel.
In data set [2] the target is T1, Progesterone receptor isoform B (PR-B). The experiment in a line: competition; 100-fold unlabeled competitor vs labeled no-CpG PRE, 2.4 ug PR-B; high-affinity competitor; EMSA: 20 min at room temperature, 5% acrylamide-bisacrylamide gel; buffer, salt and pH not stated. As to conditions: protein: recombinant; chain copies: 2; (radioactive); blunt.

T1 sequence (P06401 whole entry, canonical isoform): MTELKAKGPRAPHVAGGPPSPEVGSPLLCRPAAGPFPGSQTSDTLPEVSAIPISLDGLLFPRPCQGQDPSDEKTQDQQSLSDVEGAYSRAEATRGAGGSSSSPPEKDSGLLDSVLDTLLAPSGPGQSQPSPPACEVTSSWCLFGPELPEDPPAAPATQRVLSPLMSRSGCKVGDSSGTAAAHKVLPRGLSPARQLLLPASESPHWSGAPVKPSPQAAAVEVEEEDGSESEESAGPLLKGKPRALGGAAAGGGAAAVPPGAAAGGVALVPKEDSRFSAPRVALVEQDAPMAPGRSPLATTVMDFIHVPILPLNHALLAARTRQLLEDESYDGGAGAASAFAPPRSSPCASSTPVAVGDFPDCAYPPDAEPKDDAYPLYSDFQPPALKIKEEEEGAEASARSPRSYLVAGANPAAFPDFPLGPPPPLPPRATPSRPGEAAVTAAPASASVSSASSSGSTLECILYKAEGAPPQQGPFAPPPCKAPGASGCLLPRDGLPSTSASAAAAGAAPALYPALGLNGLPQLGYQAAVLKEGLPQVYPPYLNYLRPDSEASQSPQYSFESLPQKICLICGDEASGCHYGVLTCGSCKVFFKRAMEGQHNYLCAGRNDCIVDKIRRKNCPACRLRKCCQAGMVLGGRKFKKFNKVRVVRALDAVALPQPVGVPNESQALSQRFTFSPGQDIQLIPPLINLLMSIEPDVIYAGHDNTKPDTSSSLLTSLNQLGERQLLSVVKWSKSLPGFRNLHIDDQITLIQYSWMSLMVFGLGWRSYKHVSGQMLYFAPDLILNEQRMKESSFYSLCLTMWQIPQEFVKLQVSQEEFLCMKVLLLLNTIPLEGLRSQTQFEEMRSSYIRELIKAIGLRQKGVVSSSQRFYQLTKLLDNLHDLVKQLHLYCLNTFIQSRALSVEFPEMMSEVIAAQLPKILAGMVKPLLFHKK

B1: PRE no CpG (dsDNA)
DNA 1: GTTGAGTCAGAACAGTTTGTTCTCTAGGCAC
DNA 2: GTGCCTAGAGAACAAACTGTTCTGACTCAAC
Consider B1, for which the binding result in data set [1] is reported as “binds”.

B2: PRE two CpGs, unmethylated (dsDNA)
DNA 1: GTTGAGTCAGAACGGTTCGTTCTCTAGGCAC
DNA 2: GTGCCTAGAGAACGAACCGTTCTGACTCAAC
With B2, the binding result in data set [2] is recorded as “binds”.
